Experimental data from patent US20140178333A1.

Target: IL-28 receptor (IL-28 receptor alpha subunit with endogenous CRF2-4) on transfected 293 HEK cells (human)
Assay: cell-based or functional assay

IL-28 receptor (IL-28 receptor alpha subunit with endogenous CRF2-4) on transfected 293 HEK cells (human), sequence (Q8IU57 21-520): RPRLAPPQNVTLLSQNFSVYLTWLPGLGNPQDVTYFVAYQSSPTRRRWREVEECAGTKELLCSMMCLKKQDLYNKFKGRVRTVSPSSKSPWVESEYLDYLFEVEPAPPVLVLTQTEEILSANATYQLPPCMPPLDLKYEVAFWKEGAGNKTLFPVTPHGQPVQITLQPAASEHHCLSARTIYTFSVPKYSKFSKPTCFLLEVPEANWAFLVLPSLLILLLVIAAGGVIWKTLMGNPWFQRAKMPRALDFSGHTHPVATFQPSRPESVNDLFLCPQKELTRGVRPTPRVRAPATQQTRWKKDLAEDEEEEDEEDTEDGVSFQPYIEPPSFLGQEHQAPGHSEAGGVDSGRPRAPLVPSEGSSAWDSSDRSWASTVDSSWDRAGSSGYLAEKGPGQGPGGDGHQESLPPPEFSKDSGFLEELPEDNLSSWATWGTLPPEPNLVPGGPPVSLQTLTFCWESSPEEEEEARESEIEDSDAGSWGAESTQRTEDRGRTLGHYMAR

Row | ISRE-luciferase fold induction over medium alone, 293 HEK cells transfected with ISRE-Luc. and IL-28R; ligand 100 ng/ml (fold induction) | ISRE-luciferase fold induction over medium alone, 293 HEK cells transfected with ISRE-Luc. and IL-28R; ligand 125 ng/ml (fold induction) | Substance
1 | 0.5 | – | HuIL10 (from UniProt P22301 19-178) (ligand)
2 | – | 104 | IL-28B (SEQ ID NO:6) (from UniProt Q8IZI9 22-196) (ligand)
3 | – | 1 | Zcyto10 (from UniProt Q9NYY1 25-176) (ligand)
